Results taken from patent US20060257938A1, “Method of screening for drugs that block ligand binding to a lipid binding protein” (priority 2005, published 2006).
Changes are numbered by the printed parent chain. Where “and” joins values, the source holds several entries; their conditions need not be identical. Equal values may be shown once.

B1: 82F1, 72A (protein, listed as Rattus norvegicus)
chain: AFDGTWKVDRNENYEKFMEKMGINVVKRKLGAHDNLKLTITQEGNKFTVKESSNFRNIDVVFELGVDFAYSAADGTELTGTFTMEGNKLVGKFKRVDNGKELIAVREISGNELIQTYTYEGVEAKRIFKKE
modifications: PEPTIDE (1)...(131) wild-type rat intestinal fatty acid binding protein
B2: 82Y2, 72A (protein, listed as Rattus norvegicus)
chain: B1 chain with F82Y
modifications: PEPTIDE (1)...(131) wild-type rat intestinal fatty acid binding protein
B3: 82I3, 72A (protein, listed as Rattus norvegicus)
chain: B1 chain with F82I
modifications: PEPTIDE (1)...(131) wild-type rat intestinal fatty acid binding protein
B4: 104I1, 72A (protein, listed as Rattus norvegicus)
chain: B1 chain with F82W, A104I
modifications: PEPTIDE (1)...(131) wild-type rat intestinal fatty acid binding protein
B5: 93M, 72A (protein, listed as Rattus norvegicus)
chain: B1 chain with F82W, F93M
modifications: PEPTIDE (1)...(131) wild-type rat intestinal fatty acid binding protein
B6: 82M1, 72A (protein, listed as Rattus norvegicus)
chain: B1 chain with F82M
modifications: PEPTIDE (1)...(131) wild-type rat intestinal fatty acid binding protein
B7: 93L, 72A (protein, listed as Rattus norvegicus)
chain: B1 chain with F82W, F93L
modifications: PEPTIDE (1)...(131) wild-type rat intestinal fatty acid binding protein
B8: 82V1, 72A (protein, listed as Rattus norvegicus)
chain: B1 chain with F82V
modifications: PEPTIDE (1)...(131) wild-type rat intestinal fatty acid binding protein
B9: 91A, 72A (protein, listed as Rattus norvegicus)
chain: B1 chain with F82W, G91A
modifications: PEPTIDE (1)...(131) wild-type rat intestinal fatty acid binding protein

Test: Probe fluorescence ratio response to linolenic acid relative to ADIFAB2
Assay type: binding
Settings: response relative to ADIFAB2
In short: (§1)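 Each fatty acid's response was expressed relative to ADIFAB2, the rI-FABP-L72A probe, as ΔR/ΔRreference. ΔR is the change in the background-corrected two-wavelength intensity ratio R=Fλ1/Fλ2 from its analyte-free baseline R0. Emission was read near about 420-480 nm for unbound and about 495-580 nm for FFA-bound probe.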

Row | Molecule | DR/DR LNA
1 | B1 | 0.76
2 | B2 | 1.57
3 | B3 | 0.45
4 | B4 | 0.30
5 | B5 | 1.19
6 | B6 | 0.75
7 | B7 | 0.81 and 0.680
8 | B8 | 0.76
9 | B9 | 0.91

Test: Probe fluorescence ratio response to linoleic acid relative to ADIFAB2
Assay type: binding
Settings: response relative to ADIFAB2
In short: as §1

Row | Molecule | DR/DR LA
10 | B1 | 1.08
11 | B2 | 1.53
12 | B3 | 0.52
13 | B4 | 0.30
14 | B5 | 1.28
15 | B6 | 0.94
16 | B7 | 1.03 and 0.670
17 | B8 | 0.74
18 | B9 | 0.83

Test: Probe fluorescence ratio response to oleic acid relative to ADIFAB2
Assay type: binding
Settings: response relative to ADIFAB2
In short: as §1

Row | Molecule | DR/DR OA
19 | B1 | 0.78
20 | B2 | 1.53
21 | B3 | 0.54
22 | B4 | 0.31
23 | B5 | 1.24
24 | B6 | 0.92
25 | B7 | 1.05 and 0.770
26 | B8 | 0.65
27 | B9 | 0.85

Test: Probe fluorescence ratio response to arachidonic acid relative to ADIFAB2
Assay type: binding
Settings: Arachidonic acid; response relative to ADIFAB2
In short: as §1

Row | Molecule | DR/DR AA
28 | B1 | 0.68
29 | B2 | 0.65
30 | B3 | 0.67
31 | B5 | 0.93
32 | B6 | 0.97
33 | B7 | 0.36
34 | B8 | 0.86
35 | B9 | 0.86

Same assay, conditions: arachidonic acid; response relative to ADIFAB2

Row | Molecule | DR/DR AA
36 | B4 | 0.28
37 | B7 | 0.680

Test: Probe fluorescence ratio response to palmitic acid relative to ADIFAB2
Assay type: binding
Settings: response relative to ADIFAB2
In short: as §1

Row | Molecule | DR/DR PA
38 | B1 | 0.41
39 | B2 | 0.88
40 | B3 | 0.36
41 | B4 | 0.23
42 | B5 | 0.75
43 | B6 | 0.54
44 | B7 | 0.62 and 0.560
45 | B8 | 0.48
46 | B9 | 0.80
